Assay results from patent US20170291939A1 (Novartis, published 2017).
Positions count from the first letter of the chain named. Each block holds one binder with its values, some of them ahead of it.

Key:
[1] = target: T1, recombinant huIL-17A (SEQ ID NO: 76) (human, UniProt Q16552 24-155, limits assumed); test: cell-based or functional assay
T1 sequence: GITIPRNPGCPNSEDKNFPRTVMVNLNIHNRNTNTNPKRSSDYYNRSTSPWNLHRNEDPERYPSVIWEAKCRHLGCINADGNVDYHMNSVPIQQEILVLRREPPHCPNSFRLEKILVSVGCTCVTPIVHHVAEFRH

[2] = target: T1, recombinant huIL-17A (SEQ ID NO: 76); test: cell-based or functional assay; remark: listed apart in the source
[3] = target: T2, human IL-17A (construct not specified) (human, UniProt Q16552 24-155, limits assumed); test: cell-based or functional assay
T2 sequence: T1 sequence

recombinant mIL-17A = target: T3, recombinant mIL-17A (mouse, UniProt Q62386 26-158); test: cell-based or functional assay
T3 sequence: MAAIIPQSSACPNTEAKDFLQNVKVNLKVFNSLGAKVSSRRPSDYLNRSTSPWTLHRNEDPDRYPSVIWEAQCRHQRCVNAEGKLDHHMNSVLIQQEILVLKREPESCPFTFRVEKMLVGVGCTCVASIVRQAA

[4] = target: T2, human IL-17A (construct not specified); test: ELISA, coated huIL-17A, then 200 nM XAB1 Fab as competitor
[5] = target: T2, human IL-17A (construct not specified); test: ELISA, coated huIL-17A, crude Fab extract
[6] = target: T2, human IL-17A (construct not specified); test: ELISA, coated huIL-17A, long wash
[7] = target: T4, human IL-17A biotin (human) (UniProt Q16552); test: SPR (Biacore), 25° C., biotinylated ligand
T4 sequence (chain, biotinylated, site not given): T1 sequence

IC50, huGROα secretion by BJ cells; rhuIL-17A (0.5 nM) [1]: 0.42 nM | IC50, huIL-6 secretion by BJ cells; rhuIL-17A (0.5 nM) [2]: 0.5 nM | EC50, T = 0 weeks [3]: 40 ng/mL | EC50, T = 4 weeks at pH 8, 40° C. (forced deamidation) [3]: 40 ng/ml | IC50, KC secretion by CMT-93 cells; mIL-17A (0.15 nM) (recombinant mIL-17A): < 1 nM
B1: XAB3 (antibody, human IgG1, kappa, V domains shown)
VH: EVQLVESGGDLVQPGGSLRLSCAASGFTFSSYWMSWVRQAPGKGLEWVANIKQDGSEKYYVDSVKGRFTISRDNAKNSLYLQMNSLRAEDTAVYYCARDRGSLYYWGQGTLVTVSS
VL: AIQLTQSPSSLSASVGDRVTITCRPSQGIYWELAWYQQKPGKAPKLLIYDASSLEQGVPSRFSGSGSGTDFTLTISSLQPEDFATYYCQQFNSYPLTFGGGTKVEIKR

Competition ELISA (normalized to XAB1 Fab) [4]: 36.6 fold | Classic ELISA (normalized to XAB1 Fab) [5]: 2.9 fold | Off-rate ELISA (normalized to XAB1 Fab) [6]: 34.2 fold
B2: MB454 (Fab, V domains shown)
VH: B1 VH
VL: AIQLTQSPSSLSASVGDRVTITCRPSQGILWALAWYQQKPGKAPKLLIYDASSLENGVPSRFSGSGSGTDFTLTISSLQPEDFATYYCQQFNSYPLTFGGGTKVEIK
notes: Fab variant of XAB1

Competition ELISA (normalized to XAB1 Fab) [4]: 45.2 fold | Classic ELISA (normalized to XAB1 Fab) [5]: 3.1 fold | Off-rate ELISA (normalized to XAB1 Fab) [6]: 47.1 fold
B3: MB483 (Fab, V domains shown)
VH: B1 VH
VL: B2 VL with L30F, A32T
notes: Fab variant of XAB1

Competition ELISA (normalized to XAB1 Fab) [4]: 54 fold | Classic ELISA (normalized to XAB1 Fab) [5]: 2.8 fold | Off-rate ELISA (normalized to XAB1 Fab) [6]: 52.5 fold
B4: MB440 (Fab, V domains shown)
VH: B1 VH
VL: B2 VL with A32Q
notes: Fab variant of XAB1

Competition ELISA (normalized to XAB1 Fab) [4]: 44.6 fold | Classic ELISA (normalized to XAB1 Fab) [5]: 2.7 fold | Off-rate ELISA (normalized to XAB1 Fab) [6]: 44.7 fold
B5: MB435 (Fab, V domains shown)
VH: B1 VH
VL: B2 VL with L30N, A32E

Competition ELISA (normalized to XAB1 Fab) [4]: 36.9 fold | Classic ELISA (normalized to XAB1 Fab) [5]: 2.7 fold | Off-rate ELISA (normalized to XAB1 Fab) [6]: 34.9 fold
B6: MB464 (Fab, V domains shown)
VH: B1 VH
VL: B2 VL with L30I, W31Y, A32Q
notes: Fab variant of XAB1

Competition ELISA (normalized to XAB1 Fab) [4]: 62.8 fold | Classic ELISA (normalized to XAB1 Fab) [5]: 2.9 fold | Off-rate ELISA (normalized to XAB1 Fab) [6]: 49.8 fold
B7: MB461 (Fab, V domains shown)
VH: B1 VH
VL: B2 VL with L30Y, A32T
notes: Fab variant of XAB1

Competition ELISA (normalized to XAB1 Fab) [4]: 51.5 fold | Classic ELISA (normalized to XAB1 Fab) [5]: 2.9 fold | Off-rate ELISA (normalized to XAB1 Fab) [6]: 40.4 fold
B8: MB448 (Fab, V domains shown)
VH: B1 VH
VL: B2 VL with L30V, A32M
notes: Fab variant of XAB1

Competition ELISA (normalized to XAB1 Fab) [4]: 39.5 fold | Classic ELISA (normalized to XAB1 Fab) [5]: 2.4 fold | Off-rate ELISA (normalized to XAB1 Fab) [6]: 44.4 fold
B9: MB434 (Fab, V domains shown)
VH: B1 VH
VL: B2 VL with L30W, A32Y
notes: Fab variant of XAB1

Competition ELISA (normalized to XAB1 Fab) [4]: 46.7 fold | Classic ELISA (normalized to XAB1 Fab) [5]: 2.4 fold | Off-rate ELISA (normalized to XAB1 Fab) [6]: 45.1 fold
B10: MB456 (Fab, V domains shown)
VH: B1 VH
VL: B2 VL with A32H
notes: Fab variant of XAB1

Competition ELISA (normalized to XAB1 Fab) [4]: 41 fold | Classic ELISA (normalized to XAB1 Fab) [5]: 2.7 fold | Off-rate ELISA (normalized to XAB1 Fab) [6]: 34.7 fold
B11: MB457 (Fab, V domains shown)
VH: B1 VH
VL: B2 VL with L30I, A32S
notes: Fab variant of XAB1

Competition ELISA (normalized to XAB1 Fab) [4]: 64.9 fold | Classic ELISA (normalized to XAB1 Fab) [5]: 1.9 fold | Off-rate ELISA (normalized to XAB1 Fab) [6]: 58.5 fold
B12: MB486 (Fab, V domains shown)
VH: B1 VH
VL: B2 VL with L30W, A32M
notes: Fab variant of XAB1

Competition ELISA (normalized to XAB1 Fab) [4]: 60 fold | Classic ELISA (normalized to XAB1 Fab) [5]: 2.8 fold | Off-rate ELISA (normalized to XAB1 Fab) [6]: 43.9 fold
B13: MB468 (Fab, V domains shown)
VH: B1 VH
VL: B2 VL with L30Y, A32E
notes: Fab variant of XAB1

Competition ELISA (normalized to XAB1 Fab) [4]: 44.2 fold | Classic ELISA (normalized to XAB1 Fab) [5]: 2.1 fold | Off-rate ELISA (normalized to XAB1 Fab) [6]: 43 fold
B14: MB491 (Fab, V domains shown)
VH: B1 VH
VL: B2 VL with L30F, W31F, A32W
notes: Fab variant of XAB1

Competition ELISA (normalized to XAB1 Fab) [4]: 31.6 fold | Classic ELISA (normalized to XAB1 Fab) [5]: 2.7 fold | Off-rate ELISA (normalized to XAB1 Fab) [6]: 34.2 fold
B15: MB463 (Fab, V domains shown)
VH: B1 VH
VL: B2 VL with L30Y, W31F, A32E
notes: Fab variant of XAB1

IC50, huGROα secretion by BJ cells; rhuIL-17A (0.5 nM) [1]: 0.46 nM | IC50, huIL-6 secretion by BJ cells; rhuIL-17A (0.5 nM) [2]: 0.54 nM | EC50, T = 0 weeks [3]: 45 ng/mL | EC50, T = 4 weeks at pH 8, 40° C. (forced deamidation) [3]: 61 ng/ml | IC50, KC secretion by CMT-93 cells; mIL-17A (0.15 nM) (recombinant mIL-17A): 7.8 nM
B16: XAB5 (antibody, human IgG1, kappa, V domains shown)
VH: B1 VH
VL: B1 VL with Y30N, Q56N

Competition ELISA (normalized to XAB1 Fab) [4]: 41.1 fold | Classic ELISA (normalized to XAB1 Fab) [5]: 2.7 fold | Off-rate ELISA (normalized to XAB1 Fab) [6]: 41.5 fold
B17: MB438 (Fab, V domains shown)
VH: B1 VH
VL: B2 VL with L30P, W31Y
notes: Fab variant of XAB1

Competition ELISA (normalized to XAB1 Fab) [4]: 46.4 fold | Classic ELISA (normalized to XAB1 Fab) [5]: 2.7 fold | Off-rate ELISA (normalized to XAB1 Fab) [6]: 43.3 fold
B18: MB453 (Fab, V domains shown)
VH: B1 VH
VL: B2 VL with L30V, W31F, A32W
notes: Fab variant of XAB1

Competition ELISA (normalized to XAB1 Fab) [4]: 52.4 fold | Classic ELISA (normalized to XAB1 Fab) [5]: 3.2 fold | Off-rate ELISA (normalized to XAB1 Fab) [6]: 48.9 fold
B19: MB444 (Fab, V domains shown)
VH: B1 VH
VL: B2 VL with A32E
notes: Fab variant of XAB1

Competition ELISA (normalized to XAB1 Fab) [4]: 29.3 fold | Classic ELISA (normalized to XAB1 Fab) [5]: 2.3 fold | Off-rate ELISA (normalized to XAB1 Fab) [6]: 39.7 fold
B20: MB433 (Fab, V domains shown)
VH: B1 VH
VL: B2 VL with L30Y, A32G
notes: Fab variant of XAB1

Competition ELISA (normalized to XAB1 Fab) [4]: 42.1 fold | Classic ELISA (normalized to XAB1 Fab) [5]: 2.7 fold | Off-rate ELISA (normalized to XAB1 Fab) [6]: 33 fold
B21: MB458 (Fab, V domains shown)
VH: B1 VH
VL: B2 VL with L30W, W31Y, A32Q
notes: Fab variant of XAB1

Competition ELISA (normalized to XAB1 Fab) [4]: 57 fold | Classic ELISA (normalized to XAB1 Fab) [5]: 3 fold | Off-rate ELISA (normalized to XAB1 Fab) [6]: 45.5 fold
B22: MB447 (Fab, V domains shown)
VH: B1 VH
VL: B2 VL with L30F, A32W
notes: Fab variant of XAB1

Competition ELISA (normalized to XAB1 Fab) [4]: 37.3 fold | Classic ELISA (normalized to XAB1 Fab) [5]: 2.3 fold | Off-rate ELISA (normalized to XAB1 Fab) [6]: 44.2 fold
B23: MB432 (Fab, V domains shown)
VH: B1 VH
VL: B2 VL with W31F
notes: Fab variant of XAB1

Competition ELISA (normalized to XAB1 Fab) [4]: 53.3 fold | Classic ELISA (normalized to XAB1 Fab) [5]: 2.9 fold | Off-rate ELISA (normalized to XAB1 Fab) [6]: 41.5 fold
B24: MB450 (Fab, V domains shown)
VH: B1 VH
VL: B2 VL with L30M, A32W
notes: Fab variant of XAB1

Kd [7]: 7.68 pM | koff [7]: 3.46e-05 s⁻¹ | kon [7]: 4.51e+06 M⁻¹ s⁻¹
B25: XAB4T (Fab, part only; not given: CH1 and tag, part only)
heavy, part: EVQLVESGGDLVQPGGSLRLSCAASGFTFSSYWMSWVRQAPGKGLEWVANIKQDGSEKYYVDSVKGRFTISRDNAKNSLYLQMNSLRAEDTAVYYCARDRGSLYYWGQGTLVTVSSGSGGG
light: AIQLTQSPSSLSASVGDRVTITCRPSQGINWELAWYQQKPGKAPKLLIYDASSLEQGVPSRFSGSGSGTDFTLTISSLQPEDFATYYCQQFNSYPLTFGGGTKVEIKRTVAAPSVFIFPPSDEQLKSGTASVVCLLNNFYPREAKVQWKVDNALQSGNSQESVTEQDSKDSTYSLSSTLTLSKADYEKHKVYACEVTHQGLSSPVTKSFNRGEC
